The source of these data is PMC12084297, “Cytoplasmic connexin43-microtubule interactions promote glioblastoma stem-like cell maintenance and tumorigenicity” (Cell Death & Disease, 2025).

Test [1] has as its target α-tubulin (human (endogenous in VTC-037 GSCs)) (UniProt P68363). Nature of the test: cellular thermal shift assay (CETSA); fresh VTC-037 GSC lysates in non-denaturing buffer treated 1 h with 3-fold dilutions (222.2, 74.0, 24.7, 8.2 and 2.7 nM) of peptide, heat challenge at 57 °C for 20 min, centrifugation, immunoblot of the stable protein normalised to DMSO control; EC50 of target engagement. (In general: A western blot detects proteins with antibodies after separation by electrophoresis.)

Test [2] has as its target β-tubulin (human (endogenous in VTC-001 and VTC-037 GSCs)) (UniProt P07437). The description is as above.

α-tubulin (human (endogenous in VTC-037 GSCs)), sequence (P68363 whole entry): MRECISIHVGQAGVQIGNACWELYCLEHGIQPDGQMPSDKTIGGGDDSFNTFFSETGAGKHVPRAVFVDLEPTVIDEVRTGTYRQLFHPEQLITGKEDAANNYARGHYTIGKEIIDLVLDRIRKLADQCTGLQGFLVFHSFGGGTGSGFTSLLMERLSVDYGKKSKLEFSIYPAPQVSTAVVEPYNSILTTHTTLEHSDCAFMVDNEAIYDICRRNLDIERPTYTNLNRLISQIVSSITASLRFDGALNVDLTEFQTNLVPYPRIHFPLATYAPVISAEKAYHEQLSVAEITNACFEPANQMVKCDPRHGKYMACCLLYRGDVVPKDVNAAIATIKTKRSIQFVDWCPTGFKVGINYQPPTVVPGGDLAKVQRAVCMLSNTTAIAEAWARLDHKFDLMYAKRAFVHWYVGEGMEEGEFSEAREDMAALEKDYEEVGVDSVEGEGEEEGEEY
β-tubulin (human (endogenous in VTC-001 and VTC-037 GSCs)), sequence (P07437 whole entry): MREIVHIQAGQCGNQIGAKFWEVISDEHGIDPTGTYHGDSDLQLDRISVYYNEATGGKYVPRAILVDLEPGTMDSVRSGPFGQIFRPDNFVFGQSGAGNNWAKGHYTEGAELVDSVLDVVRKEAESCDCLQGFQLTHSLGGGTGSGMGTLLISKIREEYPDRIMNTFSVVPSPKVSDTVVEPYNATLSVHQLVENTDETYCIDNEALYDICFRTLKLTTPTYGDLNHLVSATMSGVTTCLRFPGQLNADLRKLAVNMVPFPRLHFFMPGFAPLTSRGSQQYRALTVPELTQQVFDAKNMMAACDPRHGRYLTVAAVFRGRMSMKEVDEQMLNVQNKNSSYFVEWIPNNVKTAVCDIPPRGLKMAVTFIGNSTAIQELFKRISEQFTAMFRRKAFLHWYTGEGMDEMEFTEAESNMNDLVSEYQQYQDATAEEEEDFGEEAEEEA

In general, EC50 refers to the concentration that produces a half-maximal response. For JM2 (juxtamembrane 2) peptide, the EC50 in test [1] came to 8.4 nM; in test [2], 7.9 nM.
